From the RNAGym collection of RNA variant scans (doi:10.7554/elife.80360)

B1: Hammerhead Ribozyme (parent)
chain: ACCGGAUGUGCUUUCCGGUCUGAUGAGUCCGUGAGGACGAAACAG

Variants of: B1
Assay: self-cleavage, relative activity (ratio to wild type); higher = more cleavage; co-transcriptional

Variant	self-cleavage
U28G G36A	0.573
U28G G36C	0.317
U28G G36U	0.35
U28G C43A	0.323
U28G C43U	0.3
U28G C43G	0.274
U28G U32C	0.664
U28G U32A	0.83
U28G U32G	0.449
C29A G39A	0.356
C29A G39C	0.326
C29A G39U	0.387
C29G A34U	0.748
C29G A34G	0.446
C29G A34C	0.56
U28G C30A	0.408
U28G C30U	0.83
U28G C30G	0.315
U28G A44G	0.673
U28G A44U	0.397
U28G A44C	0.371
U28G A42U	0.311
U28G A42C	0.24
U28G A42G	0.264

Variant	self-cleavage
U28G A34U	0.475
U28G A34C	0.411
U28G A34G	0.793
U28G C29A	0.878
U28G C29G	0.547
U28G C29U	0.77
C29A G35U	0.727
C29A G35C	0.526
C29A G35A	0.618
U28C G35C	0.534
U28C G35A	0.638
U28C G35U	0.431
C29A A42C	0.304
C29A A42U	0.374
C29A A42G	0.265
C29A G33C	0.442
C29A G33U	0.674
C29A G33A	0.816
C29A A44G	0.765
C29A A44C	0.323
C29A A44U	0.407
U28C C38U	1.01
U28C C38A	0.789
U28C C38G	0.575

Variant	self-cleavage
C29G A41U	0.29
C29G A41G	0.338
C29G A41C	0.269
C29G A37G	0.414
C29G A37U	0.587
C29G A37C	0.759
U28G G35C	0.562
U28G G35U	0.58
U28G G35A	0.384
U28C C29U	0.688
U28C C29G	0.583
U28C C29A	0.688
U28C U32A	0.984
U28C U32G	0.556
U28C U32C	1
U28C C30G	0.322
U28C C30U	0.573
U28C C30A	0.826
U28C A41G	0.364
U28C A41U	0.319
U28C A41C	0.29
C29A A37U	0.703
C29A A37C	0.755
C29A A37G	0.692

Variant	self-cleavage
U28C A34C	0.684
U28C A34U	0.723
U28C A34G	0.934
C29A C38G	0.281
C29A C38A	0.426
C29A C38U	0.652
U28C A37U	0.772
U28C A37G	0.914
U28C A37C	0.467
U28C G31U	0.854
U28C G31C	0.769
U28C G31A	1.03
C29A A41U	0.301
C29A A41G	0.339
C29A A41C	0.355
U28G C38A	0.64
U28G C38G	0.542
U28G C38U	0.858
U28G G45C	0.412
U28G G45U	0.527
U28G G45A	0.418
C29A A40G	0.294
C29A A40U	0.314
C29A A40C	0.354

Variant	self-cleavage
U28C A42G	0.251
U28C A42C	0.338
U28C A42U	0.325
C29A C30G	0.372
C29A C30A	0.442
C29A C30U	0.41
C29A G31U	0.611
C29A G31C	0.683
C29A G31A	0.606
U28G G39U	0.32
U28G G39C	0.323
U28G G39A	0.411
C29A U32C	0.866
C29A U32G	0.504
C29A U32A	0.643
U28C G36C	0.297
U28C G36A	0.634
U28C G36U	0.591
U28G G31C	0.987
U28G G31U	0.932
U28G G31A	0.85
U28C A40U	0.307
U28C A40G	0.356
U28C A40C	0.44

Variant	self-cleavage
U28C G45U	0.727
U28C G45C	0.406
U28C G45A	0.628
U28G A40U	0.323
U28G A40G	0.261
U28G A40C	0.383
C29A G36C	0.718
C29A G36U	0.624
C29A G36A	0.665
C29A	0.708
C29G	0.766
U28C G39U	0.291
U28C G39A	0.291
U28C G39C	0.371
C29A C43U	0.396
C29A C43G	0.348
C29A C43A	0.345
C29A A34G	0.518
C29A A34U	0.563
C29A A34C	0.494
U28C G33U	0.973
U28C G33C	0.906
U28C G33A	1.16
U28G G33A	1.02

Variant	self-cleavage
U28G G33U	0.972
U28G G33C	1.2
U28G	0.873
U28G A37C	0.919
U28G A37U	0.843
U28G A37G	0.45
U28C A44C	0.497
U28C A44U	0.599
U28C A44G	1.11
C29G A40G	0.238
C29G A40C	0.288
C29G A40U	0.325
C29G A42C	0.407
C29G A42G	0.269
U28G A41U	0.338
U28G A41C	0.348
U28G A41G	0.421
C29A G45U	0.35
C29A G45A	0.372
C29A G45C	0.388
U28C C43G	0.334
U28C C43U	0.405
U28C C43A	0.289
